{"source": "patent US6998254", "about": "“Use of ROR for receptors for screening substances useful for the treatment of atherosclerosis” (Merck Patent Gesellschaft)", "binders": {"B1": {"name": "RORECons (dsDNA)", "DNA 1": "GATCTTGACCTACATTCTAAGCTG", "DNA 2": "GATCCAGCTTAGAATGTAGGTCAA"}, "B2": {"name": "rAITaTaWT (-36/-12) (dsDNA)", "DNA 1": "GATCCACACATATATAGGTCAGGGAAGAAGA", "DNA 2": "GATCTCTTCTTCCCTGACCTATATATGTGTG"}, "B3": {"name": "hCIIITaTaKO (-33/-10) (dsDNA)", "DNA 1": "GATCGATATAAAACAGGCAGGAACCCTC", "DNA 2": "GATCGAGGGTTCCTGCCTGTTTTATATC"}}, "details_in_all_cases": "tags: TnT T7 reticulocyte lysate from pCMX-hRORα1", "key": {"hRORα1 (RORA isoform 1) [1]": {"target": "T1, hRORα1 (RORA isoform 1) (Homo sapiens, UniProt P35398 P35398:1-523)", "T1 sequence": "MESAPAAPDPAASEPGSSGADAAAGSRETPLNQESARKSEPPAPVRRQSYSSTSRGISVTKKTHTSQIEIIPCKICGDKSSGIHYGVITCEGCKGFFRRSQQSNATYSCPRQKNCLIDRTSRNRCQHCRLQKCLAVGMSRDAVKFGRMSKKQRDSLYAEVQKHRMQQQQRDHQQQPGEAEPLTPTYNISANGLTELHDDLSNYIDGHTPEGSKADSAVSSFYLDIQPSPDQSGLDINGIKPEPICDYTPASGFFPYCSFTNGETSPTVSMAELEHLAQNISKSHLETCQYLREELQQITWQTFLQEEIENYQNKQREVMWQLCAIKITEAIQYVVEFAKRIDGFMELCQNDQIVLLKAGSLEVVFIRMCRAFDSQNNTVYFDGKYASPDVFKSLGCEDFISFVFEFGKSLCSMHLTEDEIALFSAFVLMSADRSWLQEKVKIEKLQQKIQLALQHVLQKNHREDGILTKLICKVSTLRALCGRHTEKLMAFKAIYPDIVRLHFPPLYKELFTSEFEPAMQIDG", "test": "competition; unlabelled competitor 10-100x", "procedure": "(§1) During the competition experiments, increasing concentrations of nonlabelled double-stranded oligo-nucleotides (molar excess of 10 to 100 fold) were added to the mixtures and incubated for 15 min at room temperature before the addition of the radioactive probes. After addition of the radioactive probes, the reticulocyte lysates were added to the mixture and incubated for 15 min at room temperature before the separation of the protein/DNA complexes by electrophoresis on a polyacrylamide gel (4%) in a 0.25× Tris-borate-EDTA buffer at room temperature (50).\nIn this figure, fragment −90/−64 of the promoter of the human gene for apo C-III was phosphorylated at the 5' ends with polynucleotide kinase in the presence of [γ-^32P]ATP. This probe was incubated in the presence of reticuloycte lysate (\"TNT-T7\", Promega) programmed to express the hRORα1 receptor according to the protocol defined by the manufacturer or in the presence of control lysate. The DNA/protein complexes were then separated on nondenaturing polyacrylamide gel. After drying, the gel is subjected to autoradiography. The first lane of the gel corresponds to the migration of the probe incubated in the presence of control lysate. The other lanes correspond to the migration of the probe incubated in the presence of lysate programmed to express hRORα1. […]"}, "hRORα1 (RORA isoform 1) [2]": {"target": "T1, hRORα1 (RORA isoform 1)", "test": "competition; unlabelled competitor 10-100x", "remark": "listed apart in the source"}, "hRORα1 (RORA isoform 1) [3]": {"target": "T1, hRORα1 (RORA isoform 1)", "test": "competition; 10-100x excess does not compete", "procedure": "as §1\nIn FIG. 7, the −198/+24 fragment of the promoter of the human gene for apo C-III was amplified by PCR with the aid of the primers 82 and 512 (Table 1) previously phosphoryiated at the 5' end by poly-nucleotide kinase in the presence of [γ-^32P]ATP. This probe was incubated in the presence of reticulocyte lysate (TNT-T7, Promega) programmed to express the hRORα1 receptor according to the protocol defined by the manufacturer or in the presence of control lysate. The DNA/protein complexes were then separated on a non denaturing polyacrylamide gel. After drying, the gel is subjected to autoradiography. The first lane of the gel corresponds to the migration of the probe alone. The second lane corresponds to the migration of the probe incubated in the presence of the control lysate. […]"}}, "data": [{"binder": "B1", "values": [{"measurement": "binding result", "setting": "hRORα1 (RORA isoform 1) [1]", "value": "binds"}]}, {"binder": "B2", "values": [{"measurement": "binding result", "setting": "hRORα1 (RORA isoform 1) [2]", "value": "binds"}]}, {"binder": "B3", "values": [{"measurement": "binding result", "setting": "hRORα1 (RORA isoform 1) [3]", "value": "no binding"}]}]}
